Series [1] has as its system O=C(O)CCCNC(=O)c1cc2cc(F)c(O)c(F)c2oc1=O. Kind of series: purified protein, by the assay type. To be noted: other: ligation to LAP, 2 μM ligase, 600 μM LAP; pH 7.2.
In series [2] the target is biotinylated LAP-mCherry fusion protein. Put plainly: gel shift on SDS-PAGE of HEK cell lysate incubated with 5 µM streptavidin, in-gel mCherry fluorescence.

As to “E20G/W37TLplA (Escherichia coli K-12; E21G/W38T)”, in series [1], the Km (usually the substrate concentration at which the rate is half of its maximum) amounted to 17.5 ± 4.3 µM and the kcat (commonly the maximal rate divided by the concentration of active sites) is 0.014 ± 0.001 s⁻¹. Take “streptavidin protein (from UniProt P22629 37-163)”: the percent of LAP-mCherry shifted up to ~80 kD in series [2] amounted to 21%.
